Conditions in all cases: glycan lost; control: wild type
Series [1] is described as follows: immunoblot of HEK293T conditioned medium.
The nature of series [2]: native gel electrophoresis, HA immunoblot. (In western blotting, separated proteins are transferred to a membrane and probed.)
A short description of series [3]: co-IP from conditioned medium.

B1: Cbln2: N110Q (protein)
parent chain: MPAPGQGPRGPLLSMPGRRGALREPADFGSSLGAVLALLLLLLPACCPVRAQNDTEPIVLEGKCLVVCDSSPSGDGAVTSSLGISVRSGSAKVAFSATRSTNHEPSEMSNRTMTIYFDQVLVNIGNHFDLASSIFVAPRKGIYSFSFHVVKVYNRQTIQVSLMQNGYPVISAFAGDQDVTREAASNGVLLLMEREDKVHLKLERGNLMGGWKYSTFSGFLVFPL
As to B1, in series [1], the expression_or_secretion entry is reported as “no change”.

B2: Cbln2: Cbln2N110Q (protein)
parent chain: MPAPGQGPRGPLLSMPGRRGALREPADFGSSLGAVLALLLLLLPACCPVRAQNDTEPIVLEGKCLVVCDSSPSGDGAVTSSLGISVRSGSAKVAFSATRSTNHEPSEMSNRTMTIYFDQVLVNIGNHFDLASSIFVAPRKGIYSFSFHVVKVYNRQTIQVSLMQNGYPVISAFAGDQDVTREAASNGVLLLMEREDKVHLKLERGNLMGGWKYSTFSGFLVFPL
As for B2, the oligomerisation result in series [2] is recorded as “no change”.

B3: Cbln2: Cbln2N53Q (protein)
parent chain: MPAPGQGPRGPLLSMPGRRGALREPADFGSSLGAVLALLLLLLPACCPVRAQNDTEPIVLEGKCLVVCDSSPSGDGAVTSSLGISVRSGSAKVAFSATRSTNHEPSEMSNRTMTIYFDQVLVNIGNHFDLASSIFVAPRKGIYSFSFHVVKVYNRQTIQVSLMQNGYPVISAFAGDQDVTREAASNGVLLLMEREDKVHLKLERGNLMGGWKYSTFSGFLVFPL
For the protein B3, the oligomerisation entry in series [2] was “no change”.

B4: Cbln1: N23Q (protein)
parent chain: MLGVVELLLLGTAWLAGPARGQNETEPIVLEGKCLVVCDSNPTSDPTGTALGISVRSGSAKVAFSAIRSTNHEPSEMSNRTMIIYFDQVLVNIGNNFDSERSTFIAPRKGIYSFNFHVVKVYNRQTIQVSLMLNGWPVISAFAGDQDVTREAASNGVLIQMEKGDRAYLKLERGNLMGGWKYSTFSGFLVFPL
Take B4: the expression_or_secretion entry in series [1] is given as “no change”.

B5: Cbln1: Cbln1N23Q (protein)
parent chain: MLGVVELLLLGTAWLAGPARGQNETEPIVLEGKCLVVCDSNPTSDPTGTALGISVRSGSAKVAFSAIRSTNHEPSEMSNRTMIIYFDQVLVNIGNNFDSERSTFIAPRKGIYSFNFHVVKVYNRQTIQVSLMLNGWPVISAFAGDQDVTREAASNGVLIQMEKGDRAYLKLERGNLMGGWKYSTFSGFLVFPL
B5: the oligomerisation result in series [3] and in series [2] was “no change” in each case.

B6: Cbln1: N79Q (protein)
parent chain: MLGVVELLLLGTAWLAGPARGQNETEPIVLEGKCLVVCDSNPTSDPTGTALGISVRSGSAKVAFSAIRSTNHEPSEMSNRTMIIYFDQVLVNIGNNFDSERSTFIAPRKGIYSFNFHVVKVYNRQTIQVSLMLNGWPVISAFAGDQDVTREAASNGVLIQMEKGDRAYLKLERGNLMGGWKYSTFSGFLVFPL
As for B6, the expression_or_secretion result in series [1] is “no change”.

B7: Cbln1: Cbln1N79Q (protein)
parent chain: MLGVVELLLLGTAWLAGPARGQNETEPIVLEGKCLVVCDSNPTSDPTGTALGISVRSGSAKVAFSAIRSTNHEPSEMSNRTMIIYFDQVLVNIGNNFDSERSTFIAPRKGIYSFNFHVVKVYNRQTIQVSLMLNGWPVISAFAGDQDVTREAASNGVLIQMEKGDRAYLKLERGNLMGGWKYSTFSGFLVFPL
With B7, the oligomerisation entry in series [3] and in series [2] was “no change” in each case.

B8: Cbln4: Cbln4N26Q (protein)
parent chain: MGSARRALSVVPAVLLILVLPVWAQNDTEPIVLEGKCLVVCDSNPATDSKGSSSSPLGISVRAANSKVAFSAVRSTNHEPSEMSNKTRIIYFDQILVNVGNFFTLESVFVAPRKGIYSFSFHVIKVYQSQTIQVNLMLNGKPVISAFAGDKDVTREAATNGVLLYLDKEDKVYLKLEKGNLLGGWQYSTFSGFLVFPL
Take B8: the oligomerisation entry in series [3] is listed as “no change”; in series [2] it was “changes”.

B9: Cbln4: Cbln4N85Q (protein)
parent chain: MGSARRALSVVPAVLLILVLPVWAQNDTEPIVLEGKCLVVCDSNPATDSKGSSSSPLGISVRAANSKVAFSAVRSTNHEPSEMSNKTRIIYFDQILVNVGNFFTLESVFVAPRKGIYSFSFHVIKVYQSQTIQVNLMLNGKPVISAFAGDKDVTREAATNGVLLYLDKEDKVYLKLEKGNLLGGWQYSTFSGFLVFPL
B9: the oligomerisation result in series [3] and in series [2] was “no change” throughout.
